Laboratory results from article PMC7065273 (Molecular cell, 2019).

Molecular target: His6-FLAG-tagged U2AF2 (amino acids 367-475), purified from E. coli (UniProt P26368 367-475)
Assay: co-IP

Sequence of His6-FLAG-tagged U2AF2 (amino acids 367-475), purified from E. coli (P26368 367-475): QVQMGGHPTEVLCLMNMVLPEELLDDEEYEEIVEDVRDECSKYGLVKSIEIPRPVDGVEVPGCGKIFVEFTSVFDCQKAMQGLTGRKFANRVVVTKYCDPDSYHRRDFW

B1: GST-tagged SUGP1 (amino acids 366-401), purified from E. coli (domain or fragment, UniProt Q8IWZ8 366-401, looked up)
chain: APAAPGKPASAATVKRKRKSRWGPEEDKVELPPAEL
- binding result: binds
